Results reported in publication PMC8074105, “Bacillus subtilis PcrA Helicase Removes Trafficking Barriers” (Cells, 2021).

Key:
PcrA [1] = target: T1, PcrA (Bacillus subtilis, UniProt O34580 1-739); assay: EMSA; 2.5 mM ATPgS, 3 mM Mg2+; four complexes; 20 mM Tris-HCl pH 7.5, 50 mM NaCl, 3 mM MgCl2, 4 mM DTT, 0.05 mg/mL BSA, 5% glycerol, 2.5 mM ATPgS, 0.1 nM 32P-labelled nucleic acid, 15 min, 37 C; details: protein: recombinant; tags: His6 removed (TAGZyme); label: 32P
T1 sequence: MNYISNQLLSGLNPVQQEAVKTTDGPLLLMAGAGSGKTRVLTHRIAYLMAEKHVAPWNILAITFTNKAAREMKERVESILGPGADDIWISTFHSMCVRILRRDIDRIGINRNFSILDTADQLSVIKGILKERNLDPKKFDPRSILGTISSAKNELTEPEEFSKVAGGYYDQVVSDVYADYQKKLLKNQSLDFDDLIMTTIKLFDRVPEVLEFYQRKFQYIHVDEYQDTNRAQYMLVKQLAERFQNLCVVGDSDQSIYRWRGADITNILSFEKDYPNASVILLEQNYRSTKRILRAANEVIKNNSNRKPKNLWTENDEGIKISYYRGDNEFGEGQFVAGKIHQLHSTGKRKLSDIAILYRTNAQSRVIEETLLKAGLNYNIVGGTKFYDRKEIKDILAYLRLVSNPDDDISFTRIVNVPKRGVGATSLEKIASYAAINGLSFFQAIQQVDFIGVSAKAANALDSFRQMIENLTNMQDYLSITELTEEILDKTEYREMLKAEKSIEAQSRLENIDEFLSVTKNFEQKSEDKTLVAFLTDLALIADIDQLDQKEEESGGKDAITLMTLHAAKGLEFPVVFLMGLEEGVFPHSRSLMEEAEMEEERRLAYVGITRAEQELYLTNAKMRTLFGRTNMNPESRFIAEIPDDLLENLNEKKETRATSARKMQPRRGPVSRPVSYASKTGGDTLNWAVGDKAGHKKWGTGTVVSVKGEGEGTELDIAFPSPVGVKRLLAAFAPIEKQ

[2] = substrate: Nc1ncnc2c1ncn2[C@@H]1O[C@H](COP(=O)(O)OP(=O)(O)OP(=O)(O)O)[C@@H](O)[C@H]1O; assay: NADH-coupled (pyruvate kinase / lactate dehydrogenase) spectrophotometric ATPase assay, Michaelis-Menten fit; type: biochemical, Bacillus subtilis; details: 15 nM PcrA, ATP 0.06 to 10 mM, ssDNA-dependent assay (circular pGEM3 Zf(+) ssDNA, 10 µM in nt, inferred from context), 10 mM Mg acetate, 80 mM NaCl, pH 7.5, 37 °C
PcrA [3] = target: T1, PcrA; assay: EMSA; 2.5 mM ATPgS, 3 mM Mg2+; apparent; unstable complexes; 20 mM Tris-HCl pH 7.5, 50 mM NaCl, 3 mM MgCl2, 4 mM DTT, 0.05 mg/mL BSA, 5% glycerol, 2.5 mM ATPgS, 0.1 nM 32P-labelled nucleic acid, 15 min, 37 C; details: protein: recombinant; tags: His6 removed (TAGZyme); label: 32P

GCTCTGATGCCGCATAGTTAAGCCAGCCCCGACACCCG (ssDNA) [38-nt ssDNA (SM44D)]: binds (PcrA [1]).

B1: PcrA (Bacillus subtilis subsp. subtilis str. 168) (protein)
chain: MNYISNQLLSGLNPVQQEAVKTTDGPLLLMAGAGSGKTRVLTHRIAYLMAEKHVAPWNILAITFTNKAAREMKERVESILGPGADDIWISTFHSMCVRILRRDIDRIGINRNFSILDTADQLSVIKGILKERNLDPKKFDPRSILGTISSAKNELTEPEEFSKVAGGYYDQVVSDVYADYQKKLLKNQSLDFDDLIMTTIKLFDRVPEVLEFYQRKFQYIHVDEYQDTNRAQYMLVKQLAERFQNLCVVGDSDQSIYRWRGADITNILSFEKDYPNASVILLEQNYRSTKRILRAANEVIKNNSNRKPKNLWTENDEGIKISYYRGDNEFGEGQFVAGKIHQLHSTGKRKLSDIAILYRTNAQSRVIEETLLKAGLNYNIVGGTKFYDRKEIKDILAYLRLVSNPDDDISFTRIVNVPKRGVGATSLEKIASYAAINGLSFFQAIQQVDFIGVSAKAANALDSFRQMIENLTNMQDYLSITELTEEILDKTEYREMLKAEKSIEAQSRLENIDEFLSVTKNFEQKSEDKTLVAFLTDLALIADIDQLDQKEEESGGKDAITLMTLHAAKGLEFPVVFLMGLEEGVFPHSRSLMEEAEMEEERRLAYVGITRAEQELYLTNAKMRTLFGRTNMNPESRFIAEIPDDLLENLNEKKETRATSARKMQPRRGPVSRPVSYASKTGGDTLNWAVGDKAGHKKWGTGTVVSVKGEGEGTELDIAFPSPVGVKRLLAAFAPIEKQ
notes: full-length, His6-tagged from plasmid pCB1229 (pQE1) in E. coli M15 (pREP4), His-tag removed with TAGZyme; amounts as monomers
With B1 the Km [2] was 1500 ± 300 µM.

For GCUCUGAUGCCGCAUAGUUAAGCCAGCCCCGACACCCG (ssRNA) [38-nt RNA (SM44R)], the Kd (PcrA [3]) was about 35 nM.
